Results published in patent publication US5919635A (ZymoGenetics, Inc., priority 1995, dated 1999).

Tests used:
[1] = target: T1, cloned receptor (rat glucagon receptor, pLJ4) (Rattus norvegicus, UniProt P30082); experiment: Competition binding / Scatchard analysis with ^125 I-glucagon on membranes of pLJ4 BHK transfectants
T1 construct: pLJ4 contained an approximately 2 kb insert encoding a 485 amino acid protein; expressed in transfected cells; host or cells: BHK570
Procedure: Membranes from the pLJ4 BHK transfectants were compared with rat liver membrane preparations for the ability to bind ^125 I-glucagon. Membranes were prepared essentially described by Rodbell et al. (J. Biol Chem. 246:1861-1871, 1971, which is incorporated by reference herein in its entirety). Two batches of liver membranes were each prepared from approximately 80 gm of liver from 12 to 16 decapitated young female rats. The livers were removed quickly and placed into an iced beaker. The livers were separated into ten-gram portions. The portions were minced with scissors, and connective tissue was removed during the mincing procedure. The portions were separately homogenized in a Dounce homogenizer. To each portion, 25 ml of Medium (Table 2) was added to the minced tissue in the homogenizer, and the tissue was homogenized in an ice bucket with eight vigorous strokes of the loose pestle. After homogenization, the homogenates were pooled into 450 ml of cold Medium (Table 2). The pooled homogenates were stirred for 3 minutes and filtered through two layers of cheesecloth followed by filtering through four layers of cheesecloth. The homogenates were then centrifuged for 30 minutes at 1500×g at 4° C. The supernatants were discarded, and the pellets were pooled into a clean Dounce homogenizer. The pellets were resuspended with three gentle strokes of the loose pestle. The resuspended pellets were decanted into a 250 ml graduate containing 62 ml of 69% Sucrose Solution (Table 2). Distilled water was added to a final volume of 110 ml, and the mixture was thoroughly mixed and kept cold. The concentration of the solution was adjusted to 44.0%+/-0.1% using 69% sucrose or water as measured by a refractometer (Bausch & Lomb, Rochester, N.Y.). […]
To each tube 100 μl of 2× binding buffer; 20 μl of ^125 I-glucagon (Amersham); 20 μl of 1 mM NaHCO3; 20 μl 10 mM HOAc, 0.5% BSA (Novo Nordisk N/A, Bagsvaerd, Denmark); and 40 μl of distilled water were added. […] The supernatants from each sample were aspirated, and the pellets were counted. […]

[2] = tested on: Human Glucagon Receptor (pLJ6') in BHK570 cells; experiment: In situ binding of iodinated glucagon, pLJ6'-transfected BHK570 clones
Procedure: (§1) To prepare the transfectants for the ^125 I-glucagon binding assay, the spent media were aspirated from the cells, and the cells were washed three times with cold (4° C.) PBS. After the final wash, the cells were covered with Binding Media (Table 2) and incubated for ten minutes at room temperature. The media were replaced with 0.5 ml of Binding Media containing 0.5 nM ^125 I-glucagon (Amersham receptor grade, specific activity 2000 Ci/mmole; Amersham). The cells were then rocked at 30° C. for one hour. […] The media were aspirated from the cells, and the cells were washed three times with cold (4° C.) PBS. After the final wash, the cells were fixed with 1 ml of 2.5% glutaraldehyde in PBS at room temperature for 20 minutes. The glutaraldehyde was removed, and the cells were rinsed three time with PBS. The slides were air dried for one hour at room temperature, dipped in liquid photographic emulsion (Eastman Kodak Co., Rochester, N.Y.) according the manufacturer's directions, and dried at room temperature in the dark for at least 30 minutes. The slides were then plated in a light-proof box for 72 hours at 4° C.
Transfected cells were selected in the presence of G418 until single colonies were visible. Single colonies were cloned using cloning cylinders.

rat glucagon receptor = target: T2, rat glucagon receptor (Rattus norvegicus, UniProt P30082); experiment: cAMP response of clone KZ6/rGR-DHFR-2 by cAMP [^125 I] scintillation proximity assay; format: cell-based; conditions: 10 minutes at 37° C., 10 μM IBMX, read-out: ED50 (the source's name)
T2 construct: pLJ4 contained an approximately 2 kb insert encoding a 485 amino acid protein; expressed in transfected cells; host or cells: BHK/KZ6-19-46 (BHK570 with CRE-luciferase plasmid KZ6), clone KZ6/rGR-DHFR-2
Procedure: Briefly, 100 μl of 2×10^5 cells per ml KZ6/rGR-DHFR-2 cells were plated into the wells of a multi-well culture dish and grown overnight in selection media.
The cells were incubated with the agonists for 10 minutes at 37° C., 5% CO2. Following incubation, the cells were lysed by the addition of 200 μl of boiling water to each well. After 15 minutes the supernatants were collected and diluted 1:5 or 1:40 in acetate buffer (cAMP [^125 I] Scintillation Proximity Assay System (Amersham)). Samples were acetylated using triethylamine and acetic anhydride according to the protocol provided by the manufacturer.
A 100 μl aliquot of each acetylated sample was combined with 75 μl of ^125 I-cAMP, 75 μl anti-succinyl cAMP antisera and 75 μl of donkey anti-rabbit IgG coupled SPA beads (all assay solutions provided in the cAMP [^125 I] Scintillation Proximity Assay System (Amersham)) in a well of an LKB T-tray. The trays were sealed and incubated overnight with continuous shaking on a rotary platform shaker at 200 rpm. The samples were counted in a 1205 BETAPLATE liquid scintillation counter (Pharmacia LKB Instruments Inc., Gaithersburg, Md.). A standard curve of 2-128 fmol acetylated cAMP was also run. Total ^125 I-cAMP bound and non-specific binding were also determined.

[3] = tested on: Human Glucagon Receptor (pLJ6') in COS 7 cells; experiment: In situ ^125 I-glucagon binding with emulsion autoradiography, pLJ6'-transfected COS 7 cells; conditions: 72 hours after transfection
Procedure: as §1
Plasmid pLJ6' was transfected into COS 7 cells using a DEAE-dextran procedure described above. The cells were grown on glass chamber slides (as described in Example 3) for 72 hours after transfection.

T1 sequence (P30082 27-485): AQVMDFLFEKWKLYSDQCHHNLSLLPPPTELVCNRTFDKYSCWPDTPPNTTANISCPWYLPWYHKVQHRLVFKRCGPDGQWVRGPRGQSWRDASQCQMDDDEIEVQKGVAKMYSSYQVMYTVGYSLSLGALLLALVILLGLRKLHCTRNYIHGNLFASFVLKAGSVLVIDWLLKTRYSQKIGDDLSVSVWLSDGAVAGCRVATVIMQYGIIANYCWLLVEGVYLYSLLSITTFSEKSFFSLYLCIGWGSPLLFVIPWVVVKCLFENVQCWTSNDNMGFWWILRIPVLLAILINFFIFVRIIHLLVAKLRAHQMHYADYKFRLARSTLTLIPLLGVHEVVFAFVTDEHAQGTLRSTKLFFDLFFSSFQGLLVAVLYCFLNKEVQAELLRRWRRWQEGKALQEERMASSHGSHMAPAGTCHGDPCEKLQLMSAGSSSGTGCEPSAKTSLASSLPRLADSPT
T2 sequence (P30082 27-485): as above

For “glucagon: 29 amino acid hormone produced by the alpha cells of pancreatic islets; human glucagon (Sigma)”, the Kd ([1]; Scatchard analysis, cloned receptor, BHK transfectant membranes, 30 minutes at 30° C., read-out: apparent Kd) was 0.05 µM, the “ability to compete for ^125 I-glucagon binding” value ([1]; micromolar amounts (Table 7: 1 μM glucagon and des-His^1 [Glu^9]glucagon amide)) was “able to compete” and the “binding of glucagon by clones (in words)” value [2] was “shown to bind glucagon”. The EC50 (rat glucagon receptor) was 0.00025 µM and the “cells transfected with pLJ6' that bound glucagon in a specific fashion” value [3] was “Greater than 50%”.
